Results: patent publication US20180127487A1 (Sanofi, published 2018)
Read-outs that look alike come from different tables or passages of the source.

Key:
recombinant human FcRn [1] = target: T1, recombinant human FcRn (human, UniProt P55899 24-297; P61769 21-119); test: SPR, human FcRn immobilised; relative to mAb1
T1 construct: also called human FcRn receptor

recombinant mouse FcRn [2] = target: T2, recombinant mouse FcRn (mouse, UniProt Q61559 22-297; P01887 21-119); test: SPR, mouse FcRn immobilised; relative to mAb1
T2 sequence 1: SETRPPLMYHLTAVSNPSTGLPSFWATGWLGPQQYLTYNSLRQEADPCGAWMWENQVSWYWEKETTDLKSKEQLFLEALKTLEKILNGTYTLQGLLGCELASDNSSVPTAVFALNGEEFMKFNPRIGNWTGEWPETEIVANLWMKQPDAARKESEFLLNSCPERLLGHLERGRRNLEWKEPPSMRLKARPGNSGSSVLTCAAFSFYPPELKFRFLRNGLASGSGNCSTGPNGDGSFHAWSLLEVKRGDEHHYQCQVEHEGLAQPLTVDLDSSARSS
T2 sequence 2: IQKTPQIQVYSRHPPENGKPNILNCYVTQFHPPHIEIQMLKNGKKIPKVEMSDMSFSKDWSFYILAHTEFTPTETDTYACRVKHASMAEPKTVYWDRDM

recombinant human FcRn [3] = target: T1, recombinant human FcRn; test: SPR (Biacore T200), human FcRn immobilised on CM5 chip
recombinant mouse FcRn [4] = target: T2, recombinant mouse FcRn; test: SPR (Biacore T200), mouse FcRn immobilised on CM5 chip
[5] = target: T3, Recombinant human HPC4-tagged FcγRIII-F158 (human, UniProt P08637 17-208); test: SPR (Biacore 3000), HPC4-tagged FcγRIII-F158 captured on anti-HPC4 CM5 chip, antibody injected 2 min, in duplicate; concentration (900, 300 or 100 nM in the methods) not printed on the sheet
T3 construct: also called FcγRIIIaF158; not shown: HPC4 tag

[6] = target: T4, Recombinant human HPC4-tagged FcγRIIIa-V158 (human, UniProt P08637 17-208); test: SPR (Biacore 3000), HPC4-tagged FcγRIIIa-V158 captured on anti-HPC4 CM5 chip, antibody injected 2 min, in duplicate; concentration (900, 300 or 100 nM in the methods) not printed on the sheet
T4 construct: Valine at 158 is a polymorphism, named without an old residue; also called Val158; not shown: HPC4 tag

recombinant human FcRn [7] = target: T1, recombinant human FcRn; test: SPR, human FcRn immobilised; relative to mAb2
recombinant mouse FcRn [8] = target: T2, recombinant mouse FcRn; test: SPR, mouse FcRn immobilised; relative to mAb2
recombinant human FcRn [9] = target: T1, recombinant human FcRn; test: SPR (Biacore T200), human FcRn immobilised on CM5 chip; remark: listed apart in the source
recombinant mouse FcRn [10] = target: T2, recombinant mouse FcRn; test: SPR (Biacore T200), mouse FcRn immobilised on CM5 chip; remark: listed apart in the source
Antigen (E2) = Antigen (E2) (Chikungunya virus); test: SPR (Biacore T200), His-tagged antigen captured by anti-His antibody, 1:1 model
[11] = target: T5, His-tagged CHIKV E2 LR2006 (Chikungunya virus strain LR2006, UniProt Q8JUX5 326-1220)
T5 construct: also called CHIKV pE2-E1 antigen derived from CHIKV strain LR2006; pE2-E1 target

[12] = target: T3, Recombinant human HPC4-tagged …; test: SPR (Biacore 3000), HPC4-tagged FcγRIII-F158 captured on anti-HPC4 CM5 chip, antibody injected 2 min, in duplicate; concentration (900, 300 or 100 nM in the methods) not printed on the sheet; remark: listed apart in the source
[13] = target: T4, Recombinant human HPC4-tagged …; test: SPR (Biacore 3000), HPC4-tagged FcγRIIIa-V158 captured on anti-HPC4 CM5 chip, antibody injected 2 min, in duplicate; concentration (900, 300 or 100 nM in the methods) not printed on the sheet; remark: listed apart in the source

T1 sequence (P55899 24-297 limits assumed, chain 1 of 2): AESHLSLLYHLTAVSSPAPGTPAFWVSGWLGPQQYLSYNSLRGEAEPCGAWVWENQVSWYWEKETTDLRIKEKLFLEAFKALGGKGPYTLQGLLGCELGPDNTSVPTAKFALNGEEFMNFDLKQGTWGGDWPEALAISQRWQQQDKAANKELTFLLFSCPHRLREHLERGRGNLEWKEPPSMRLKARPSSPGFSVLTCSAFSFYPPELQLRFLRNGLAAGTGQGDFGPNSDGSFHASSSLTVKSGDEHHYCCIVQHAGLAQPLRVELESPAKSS
T1 sequence (P61769 21-119 limits assumed, chain 2 of 2): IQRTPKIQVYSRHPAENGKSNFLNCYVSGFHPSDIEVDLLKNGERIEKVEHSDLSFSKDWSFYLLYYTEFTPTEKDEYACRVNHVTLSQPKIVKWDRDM
T3 sequence (P08637 17-208): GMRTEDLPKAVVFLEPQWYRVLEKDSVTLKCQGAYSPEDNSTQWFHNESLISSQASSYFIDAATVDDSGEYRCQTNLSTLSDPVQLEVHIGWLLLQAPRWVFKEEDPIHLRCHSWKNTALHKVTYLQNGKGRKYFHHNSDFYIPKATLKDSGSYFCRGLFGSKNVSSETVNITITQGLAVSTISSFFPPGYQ
T4 sequence (P08637 17-208 F176V): as the sequence (P08637 17-208) above, with F160V counted along it

B1: mAb3 (antibody)
heavy: not shown
light: QAVVTQPPSVSGAPGQRVTISCTGSSSNIGADYNVHWYQLLPGTAPKLLIYGNTNRPSGVPDRFSGSKSGTSASLAITGLQAEDEADYYCQSYDSSLSASVFGGGTKLTVLGQPKAAPSVTLFPPSSEELQANKATLVCLISDFYPGAVTVAWKADSSPVKAGVETTTPSKQSNNKYAASSYLSLTPEQWKSHRSYSCQVTHEGSTVEKTVAPTECS
notes: also called mAb1A
Recombinant human FcRn [1]
  Affinity Increase (fold): 7.7 fold
Recombinant mouse FcRn [2]
  Affinity Increase (fold): 2.1 fold
Recombinant human FcRn [3]
  Kd: 45 nM
Recombinant mouse FcRn [4]
  Kd: 9.3 nM
[5]
  binding result: binds
[6]
  binding result: binds

B2: mAb4 (antibody)
heavy: QVQLVQSGAEVKKPGASVKVSCKASGYSFTSYGISWVRQAPGQGLEWMGWISTYKGYTQYAQNFQGRVTITTDTPATTVYMELRSLRSDDTAVYYCARVLSETGYFYYYYYGMDVWGQGTLVTVSSASTKGPSVFPLAPSSKSTSGGTAALGCLVKDYFPEPVTVSWNSGALTSGVHTFPAVLQSSGLYSLSSVVTVPSSSLGTQTYICNVNHKPSNTKVDKKVEPKSCDKTHTCPPCPAPELLGGPSVFLFPPKPKDTLMISRTPEVTCVVVDVSHEDPEVKFNWYVDGVEVHNAKTKPREEQYNSTYRVVSVLAVLHQDWLNGKEYKCKVSNKALPAPIEKTISKAKGQPREPQVYTLPPSRDELTKNQVSLTCLVKGFYPSDIAVAWESNGQPENNYKTTPPVLDSDGSFFLYSKLTVDKSRWQQGNVFSCSVMHEALHAHYTQKSLSLSPG
light: QAVVTQPPSVSGAPGQRVTISCTGSSSNIGADYNVHWYQLLPGTAPKLLIYGNTNRPSGVPDRFSGSKSGTSASLAITGLQAEDEADYYCQSYDSSLSASVFGGGTKLTVLGQPKAAPSVTLFPPSSEELQANKATLVCLISDFYPGAVTVAWKADSSPVKAGVETTTPSKQSNNKYAASSYLSLTPEQWKSHRSYSCQVTHEGSTVEKTVAPTECS
notes: also called mAb1AAA
Recombinant human FcRn [1]
  Affinity Increase (fold): 11.3 fold
Recombinant mouse FcRn [2]
  Affinity Increase (fold): 2.3 fold
Recombinant human FcRn [3]
  Kd: 31 nM
Recombinant mouse FcRn [4]
  Kd: 8.4 nM
[5]
  binding result: binds
[6]
  binding result: binds

B3: mAb5 (antibody)
heavy: not shown
light: QAVVTQPPSVSGAPGQRVTISCTGSSSNIGADYNVHWYQLLPGTAPKLLIYGNTNRPSGVPDRFSGSKSGTSASLAITGLQAEDEADYYCQSYDSSLSASVFGGGTKLTVLGQPKAAPSVTLFPPSSEELQANKATLVCLISDFYPGAVTVAWKADSSPVKAGVETTTPSKQSNNKYAASSYLSLTPEQWKSHRSYSCQVTHEGSTVEKTVAPTECS
notes: also called mAb1QL
Recombinant human FcRn [1]
  Affinity Increase (fold): 13 fold
Recombinant mouse FcRn [2]
  Affinity Increase (fold): 3.3 fold
Recombinant human FcRn [3]
  Kd: 27 nM
Recombinant mouse FcRn [4]
  Kd: 5.9 nM
[5]
  binding result: binds
[6]
  binding result: binds

B4: mAb6 (antibody)
heavy: QVQLVQSGAEVKKPGASVKVSCKASGYSFTSYGISWVRQAPGQGLEWMGWISTYKGYTQYAQNFQGRVTITTDTPATTVYMELRSLRSDDTAVYYCARVLSETGYFYYYYYGMDVWGQGTLVTVSSASTKGPSVFPLAPSSKSTSGGTAALGCLVKDYFPEPVTVSWNSGALTSGVHTFPAVLQSSGLYSLSSVVTVPSSSLGTQTYICNVNHKPSNTKVDKKVEPKSCDKTHTCPPCPAPELLGGPSVFLFPPKPKDTLYITREPEVTCVVVDVSHEDPEVKFNWYVDGVEVHNAKTKPREEQYNSTYRVVSVLTVLHQDWLNGKEYKCKVSNKALPAPIEKTISKAKGQPREPQVYTLPPSRDELTKNQVSLTCLVKGFYPSDIAVEWESNGQPENNYKTTPPVLDSDGSFFLYSKLTVDKSRWQQGNVFSCSVMHEALHNHYTQKSLSLSPG
light: QAVVTQPPSVSGAPGQRVTISCTGSSSNIGADYNVHWYQLLPGTAPKLLIYGNTNRPSGVPDRFSGSKSGTSASLAITGLQAEDEADYYCQSYDSSLSASVFGGGTKLTVLGQPKAAPSVTLFPPSSEELQANKATLVCLISDFYPGAVTVAWKADSSPVKAGVETTTPSKQSNNKYAASSYLSLTPEQWKSHRSYSCQVTHEGSTVEKTVAPTECS
notes: also called mAb1YTE
Recombinant human FcRn [1]
  Affinity Increase (fold): 16.3 fold
Recombinant mouse FcRn [2]
  Affinity Increase (fold): 10.4 fold
Recombinant human FcRn [3]
  Kd: 21 nM
Recombinant mouse FcRn [4]
  Kd: 1.9 nM
[5]
  binding result: binds
[6]
  binding result: binds

B5: mAb2 (antibody)
heavy: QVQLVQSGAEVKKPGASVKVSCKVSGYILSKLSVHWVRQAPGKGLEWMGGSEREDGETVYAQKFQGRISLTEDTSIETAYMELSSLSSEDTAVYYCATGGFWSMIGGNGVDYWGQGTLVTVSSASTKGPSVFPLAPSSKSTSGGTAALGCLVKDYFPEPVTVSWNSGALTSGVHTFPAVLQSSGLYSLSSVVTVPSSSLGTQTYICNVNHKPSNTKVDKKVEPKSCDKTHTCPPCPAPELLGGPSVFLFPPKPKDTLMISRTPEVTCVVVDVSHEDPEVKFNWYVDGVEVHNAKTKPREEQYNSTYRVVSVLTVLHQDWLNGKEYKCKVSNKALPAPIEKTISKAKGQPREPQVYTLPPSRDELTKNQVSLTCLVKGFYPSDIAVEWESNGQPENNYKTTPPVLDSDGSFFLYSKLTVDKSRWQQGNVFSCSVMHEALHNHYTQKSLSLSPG
light: QAVVTQSPSSLPASVGDRVTITCRASQDIRNNLGWYQQKPGKAPERLIYGTSNLQSGVPSRFSGSGSGTEFTLTISSLQPEDFATYYCLQHNSYPPTFGRGTKVEIKRTVAAPSVFIFPPSDEQLKSGTASVVCLLNNFYPREAKVQWKVDNALQSGNSQESVTEQDSKDSTYSLSSTLTLSKADYEKHKVYACEVTHQGLSSPVTKSFNRGEC
notes: also called parent antibody mAb2
Recombinant human FcRn [7]
  Affinity Increase (fold): 1 fold
Recombinant mouse FcRn [8]
  Affinity Increase (fold): 1 fold
Recombinant human FcRn [9]
  Kd: 328 nM
Recombinant mouse FcRn [10]
  Kd: 22 nM
Antigen (E2)
  Kd: 0.13 nM
[11]
  binding result: binds
[12]
  binding result: binds
[13]
  binding result: binds

B6: M104A/G109A (antibody, V domains shown)
VH: QVQLVQSGAEVKKPGASVKVSCKVSGYILSKLSVHWVRQAPGKGLEWMGGSEREDGETVYAQKFQGRISLTEDTSIETAYMELSSLSSEDTAVYYCATGGFWSAIGGNAVDYWGQGTLVTVSS
VL: QAVVTQSPSSLPASVGDRVTITCRASQDIRNNLGWYQQKPGKAPERLIYGTSNLQSGVPSRFSGSGSGTEFTLTISSLQPEDFATYYCLQHNSYPPTFGRGTKVEIKR
notes: also called mAb2 M104A/G109A; double mutant of mAb2 in CDRH3
[11]
  binding result: no binding

B7: M104A/N108Q (antibody, V domains shown)
VH: QVQLVQSGAEVKKPGASVKVSCKVSGYILSKLSVHWVRQAPGKGLEWMGGSEREDGETVYAQKFQGRISLTEDTSIETAYMELSSLSSEDTAVYYCATGGFWSAIGGQGVDYWGQGTLVTVSS
VL: QAVVTQSPSSLPASVGDRVTITCRASQDIRNNLGWYQQKPGKAPERLIYGTSNLQSGVPSRFSGSGSGTEFTLTISSLQPEDFATYYCLQHNSYPPTFGRGTKVEIKR
notes: also called mAb2 M104A/N108Q; double mutant of mAb2 in CDRH3
[11]
  binding result: no binding

B8: mAb2 M104A (antibody, V domains shown)
VH: QVQLVQSGAEVKKPGASVKVSCKVSGYILSKLSVHWVRQAPGKGLEWMGGSEREDGETVYAQKFQGRISLTEDTSIETAYMELSSLSSEDTAVYYCATGGFWSAIGGNGVDYWGQGTLVTVSS
VL: QAVVTQSPSSLPASVGDRVTITCRASQDIRNNLGWYQQKPGKAPERLIYGTSNLQSGVPSRFSGSGSGTEFTLTISSLQPEDFATYYCLQHNSYPPTFGRGTKVEIKR
notes: also called variant comprising an alanine at position 8 of its CDRH3
[11]
  binding result: no binding

B9: mAb10 (antibody, V domains shown)
VH: QVQLVQSGAEVKKPGASVKVSCKVSGYILSKLSVHWVRQAPGKGLEWMGGSEREDGETVYAQKFQGRISLTEDTSIETAYMELSSLSSEDTAVYYCATGGFWSIIGGNGVDYWGQGTLVTVSS
VL: QAVVTQSPSSLPASVGDRVTITCRASQDIRNNLGWYQQKPGKAPERLIYGTSNLQSGVPSRFSGSGSGTEFTLTISSLQPEDFATYYCLQHNSYPPTFGRGTKVEIKR
notes: also called mAb2M104I
Antigen (E2)
  Kd: 0.94 nM
[11]
  binding result: binds

B10: mAb12 (antibody, V domains shown)
VH: QVQLVQSGAEVKKPGASVKVSCKVSGYILSKLSVHWVRQAPGKGLEWMGGSEREDGETVYAQKFQGRISLTEDTSIETAYMELSSLSSEDTAVYYCATGGFWSMIGGNAVDYWGQGTLVTVSS
VL: QAVVTQSPSSLPASVGDRVTITCRASQDIRNNLGWYQQKPGKAPERLIYGTSNLQSGVPSRFSGSGSGTEFTLTISSLQPEDFATYYCLQHNSYPPTFGRGTKVEIKR
notes: also called mAb2G109A; mAb2 G109A
Antigen (E2)
  Kd: 0.5 nM
[11]
  binding result: binds
